This sample holds only a part of the variants without activity.
B1: TPR 5TU (parent)
chain: GGAUCUUCUCGAUCUAACAAAAAAGACAAAUCUGCCACAAAGCUUGAGAGCAUCUUCGGAUGCAGAGGCGGCAGCCUUCGGUGGCGCGAUAGCGCCAACGUUCUCAACUAUGACACGCAAAACGCGUGCUCCGUUGAAUGGAGUUUAUCAUG

Variants of: B1
Test: polymerase ribozyme fitness, log enrichment relative to wild type (log ratio); higher = more active; in vitro selection for triplet polymerase activity
Outline: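 Mutant libraries were PCR-built and transcribed for each subunit of a heterodimeric triplet polymerase ribozyme and selected for one round in triplicate at −7 °C, frozen, before gel excision of extended constructs and streptavidin-bead capture. Input and output libraries were Illumina-sequenced, keeping genotypes with ≥10 input reads and ≥1 read per output. Fitness is a logarithmic ratio of genotype to wild-type enrichment, in base 2, using inverse-variance-weighted replicate averages.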

Variant	polymerase ribozyme fitness (log ratio)
A19U C96U	-0.369
A19U C96A	-0.531
A19U U31A G58C C63U G70C C95U C131G G152U	≤ -4.2
A19U A23C A29G G83C A97U C103G U139C	≤ -4.2
A19U C95U	-0.543
A19G U109C G141A	-2.85
A19U A24U G46U A49C U82G C99A	≤ -4.2
A19G G83C	-1.11
A19C G62U C95U C96A	-2.36
A19G U33C A49C C54U G81A C87U	≤ -4.2
A19U U53G C93G	≤ -4.2
A19G U44C U56A C57U C85U C95G	≤ -4.2
A19G U82G G94A C96U A97U G124U	-2.53
A19U A40G G124A	-4.11
A19U A47C C93U	-1.1
A19G A30G G42C G50A C85U U109A A120G	≤ -4.2
A19G A40U C57A U61A G100U G136U G141C	≤ -4.2
A19U U33C C69U G126U	-0.898
A19U C85G G92U C123U	-2.54
A19G C35A G42C G68C G92A	≤ -4.2
A19U A22C A40C C43G A66C C95A G141U G152A	-3.6
A19G C54G	-1.84
A19U A21U G86A C103U	-2.31
A19U A23G U90G	-3.99

Variant	polymerase ribozyme fitness (log ratio)
C18U G50C G88C C99U	≤ -4.2
A19U C105G	-1.81
A19U G94A	-1
C18U U55A G81C C93U C105U C118G	-1.85
A19U C51G G59C C75G G88A A91U C96U G141C	≤ -4.2
A19G A47G G48A	-3.23
A19G C72G A89G	≤ -4.2
A19G G50A	-2.14
A19C A66C G94A U134G	≤ -4.2
A19U C87U A121C A147U	0.743
A19G A98U A115U A120U	-2.62
A19C C54A U78G C96U G141C	≤ -4.2
A19C C54U	-0.474
A19G A49C C54A G68A C93A C95A C103U G124A	≤ -4.2
A19G C85U G94U G141U	0.14
A19U U55A G59U	0.528
A19G U148G	-3.88
A19C A22U C35A A106G	-3.28
A19G A41U A66C C93U C99U A115U G140A G141C	≤ -4.2
C18U G140C	-4.17
C18U U90G	≤ -4.2
A19C A24U C93U U135C	-2.84
A19C G86C C99U	-2.28
A19C C38A C57A G80U C95U C116G	-1.83

Variant	polymerase ribozyme fitness (log ratio)
A19U C38A C54U C85A C108A	≤ -4.2
A19U A52U A97G	-2.59
A19U A26U G46A C87A A91U G94A U127C G143C	≤ -4.2
C18U U31G A41G U56A C63U C95U C96G U144C	-2.53
A19G A73U G94C	-2.39
A19G G94A	-1.06
A19C C54U G67U C85A	≤ -4.2
C18U G65A	-1.77
A19G G50U A73G C85U	-0.781
A19C C43U U61G A64C U77G C85U A110U C116G	≤ -4.2
C18U U56A G83A U102A U144A	-3.72
A19G A37U U101G	-2.14
A19C G65C C69G C85U C87G U102G A121G G124A U139G	≤ -4.2
A19U C85A	-1.33
A19U C85G	-2.18
A19G U56A G86A G141U	-1.64
C18U G34U G70A C85U C87U A91C G117A	≤ -4.2
A19U A21C	-0.908
A19C C51U A52G G84U A89U G124U G141U	-1.23
A19U C35U	-0.444
A19G C57G G84U	-2.3
A19G C32A A40C U61A C93G A110G	≤ -4.2
A19U U56A A60G U104G G152A	-2.82
A19U G48A C116G U127G	≤ -4.2

Variant	polymerase ribozyme fitness (log ratio)
A19G U109G U139C U144C U148C	-4.14
C18U G58C G86A U104C	-1.79
A19C C54A C96U A122G G133C	-2.39
A19C U56A	0.406
A19G U82G G124A G140C	-3.62
A19U A49C C54A G62A A119G C125U U144A	≤ -4.2
A19G C93A G140A	≤ -4.2
A19U A23C C27A C85A	≤ -4.2
A19G A28U A40C A60C G71U C75A G86U	≤ -4.2
A19U A24C C35U C57U A66C G86U	-4.08
A19G A23G G67C C87U	≤ -4.2
A19C C27U A29C A52C G86C A137G G143U	≤ -4.2
A19U C85G A121G	-1.62
A19C G62C G84A A89G G117A	-2.57
A19U A28U G67C U82A C87A A122C U127C U145C	≤ -4.2
A20C A23U A29U G92A A110U U139G A142G U144G	≤ -4.2
A19U G141A	0.304
A19C C79U A98U	-1.81
A19C C35G U53A C57A G92A U101C	-4.13
A19U U44G G50C A73G C76A G140A	≤ -4.2
A19G G50A C69U G84U A98U A122G	≤ -4.2
A19C C35U C95U	0.438
A19U A22G A39C C79G	≤ -4.2
A19C G46A G62A G94A C95A	≤ -4.2

Variant	polymerase ribozyme fitness (log ratio)
A19G U55A	-0.576
A19C C51A C75A C93A G117C	≤ -4.2
A19U A21U C85G	-2.46
A19U C75U G81C C99G A119G G140U	≤ -4.2
A19C U55A A91G	-2.67
A19U C123U	-0.609
A19U U45G G83C U127A	≤ -4.2
A19U A20U C35U G59C U77C C118U C123U G141A U151G	≤ -4.2
A19C C129G U148G	≤ -4.2
C18U U53A C54U U56A G70A C85U C116U G141C	≤ -4.2
A19G U109G C118G U144A	-3.72
A19U C85A A113U	-3.44
A19G A26C U144G	-2.17
A19G A23U C57G G84U C93G G94C A122U A142C	≤ -4.2
A19U U55G G86U	-1.7
C18U U61G A91C C93G C96U C99U A147U	≤ -4.2
A19U A30C C95G	≤ -4.2
A19U C79A	≤ -4.2
A19C G34A C57U G86C C96U A98U	-3.16
A19C A39U U53G A89U U104G C108A G136A A138C U145A	≤ -4.2
A19C C57U G86A	-0.316
A19G G42U G50U A52U C75U G88U G92C G143A	≤ -4.2
A19U G46U A89C	-2.83
A19U C69U G92C G126C	-1.04

Variant	polymerase ribozyme fitness (log ratio)
A20C A23U C27A G58U C72A A89G C99A A107C	≤ -4.2
A19G A28G A60G G86C A107G C118U G141U	≤ -4.2
A19U G84C	-2.08
A19C G62C C72A C87A C131U U135A	≤ -4.2
C18U U53A C95U C99G	-3.76
A19G A26C U55G G83U U151C	≤ -4.2
A19G A22G U31G A41U U44A A60C G81A G83C G84A U146A	≤ -4.2
A19U G48U	-0.613
A19U G48A	-1.05
A19U A20C G59A A89U C95U G126C	-0.274
A19C A24G C36U C57A U111G A121G	≤ -4.2
A19G G59U	-0.93
A19U A37U U44G A66U G92U C96A C123U G124A	≤ -4.2
A19U C57G C95U C103G U104G	≤ -4.2
A19U A52C	-1.34
A19U A120U	-0.806
A19G C87G G92A U134A	≤ -4.2
A19G G67C G124U	≤ -4.2
A19U A28C A40C A41C U44G C85A A113C	≤ -4.2
C18U G94A	-1.37
A19C C87U	-0.722
A20C A24C C51A G74C G94U A121U U135G U148C	≤ -4.2
A19C U45A G59U U148A C149G	≤ -4.2
A19C U56A G94A C99U U135A U148A U151G	≤ -4.2

Variant	polymerase ribozyme fitness (log ratio)
A19C A20U C85U G136A	-0.21
A19U U44A C95U C99G	≤ -4.2
A19U C63U C96U C105G C116A	-2.98
A19G A30G C38U C85G A89U U130G	≤ -4.2
A19C G70C C103G	≤ -4.2
A19U A20U C85U A142G	-2.89
A19G A73G C85A	-1.82
A19G U90G	≤ -4.2
A19C C38U C96U A142U	-0.812
A19U C57G	-1.75
A19C G117C	0.678
A19U C87G	-4.17
C18U G80U U148C	-3.99
A19C A28C A73G C87U	≤ -4.2
A19C A107G	-3.75
A19C U45A G67A	≤ -4.2
A19U A30U G62C G65C C96A	≤ -4.2
C18U C132U U135A	-2.33
A19U G50U C51A C96U A119G	-3.91
A19C C123G	0.921
A19G C85G G117A A137G	-2.73
A19G C87G	≤ -4.2
A19G A21C A30U C38G A41C G48A U77G C93G C114G	≤ -4.2
